The values below come from US20130005012A1, “ENZYMATIC SYSTEM FOR MONOMER SYNTHESIS” (PHYTOGENE, INC., priority 2011, published 2013).

The labels stand for the following.
T1: FDC1 (Saccharomyces cerevisiae, UniProt Q03034)
T1 construct: 6xHis (N-terminal tag of vector pDEST17); made in house; host or cells: E. coli BL21(DE3)
T1 sequence (Q03034 1-503): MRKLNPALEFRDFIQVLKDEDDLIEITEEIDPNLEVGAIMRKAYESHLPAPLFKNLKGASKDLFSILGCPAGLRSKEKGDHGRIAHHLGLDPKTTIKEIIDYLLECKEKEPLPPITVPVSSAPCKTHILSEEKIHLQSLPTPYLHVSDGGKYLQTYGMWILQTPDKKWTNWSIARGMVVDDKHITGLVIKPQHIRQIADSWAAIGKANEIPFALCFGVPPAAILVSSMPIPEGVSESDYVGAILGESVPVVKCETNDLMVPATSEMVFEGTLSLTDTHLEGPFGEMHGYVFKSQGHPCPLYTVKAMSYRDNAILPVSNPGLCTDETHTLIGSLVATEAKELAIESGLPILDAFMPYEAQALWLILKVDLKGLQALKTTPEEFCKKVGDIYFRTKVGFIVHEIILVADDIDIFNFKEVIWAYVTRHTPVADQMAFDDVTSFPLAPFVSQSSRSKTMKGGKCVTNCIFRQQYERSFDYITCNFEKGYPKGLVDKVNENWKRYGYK

T2: yeast FDC (ferulic acid decarboxylase, FDC1, Saccharomyces cerevisiae) in prey vector pGADT7-Gateway (Saccharomyces cerevisiae, UniProt Q03034 1-503)
T2 construct: Yeast two-hybrid prey fusion expressed in Clontech Y2HGold cells; also called FDC (Prey vector); not shown: fusion partner encoded by yeast two-hybrid prey vector pGADT7-Gateway
T2 sequence: T1 sequence (Q03034 1-503)

B1: yeast PAD1 (phenylacrylic acid decarboxylase, Saccharomyces cerevisiae) in bait vector pGBKT7-Gateway (enzyme)
chain: VAITGATGVALGIRLLQVLKELSVETHLVISKWGAATMKYETDWEPHDVAALATKTYSVRDVSACISSGSFQHDGMIVVPCSMKSLAAIRIGFTEDLITRAADVSIKENRKLLLVTRETPLSSIHLENMLSLCRAGVIIFPPVPAFYTRPKSLHDLLEQSVGRILDCFGIHADTFPRWEGIKSK
notes: Yeast two-hybrid bait fusion expressed in Clontech Y2HGold cells; also called PAD1 (Bait vector); not shown: fusion partner encoded by yeast two-hybrid bait vector pGBKT7-Gateway
B2: yeast PAD1 (phenylacrylic acid decarboxylase, Saccharomyces cerevisiae) in prey vector pGADT7-Gateway (enzyme)
chain: B1 chain
notes: Yeast two-hybrid prey fusion expressed in Clontech Y2HGold cells; also called PAD1 (Prey vector); not shown: fusion partner encoded by yeast two-hybrid prey vector pGADT7-Gateway
B3: PAD1: phenylacrylic acid decarboxylase from S. cerevisiae, SEQ ID NO:10 encoded by SEQ ID NO:9 (protein, listed as Saccharomyces cerevisiae)
chain: MLLFPRRTNIAFFKTTGIFANFPLLGRTITTSPSFLTHKLSKEVTRASTSPPRPKRIVVAITGATGVALGIRLLQVLKELSVETHLVISKWGAATMKYETDWEPHDVAALATKTYSVRDVSACISSGSFQHDGMIVVPCSMKSLAAIRIGFTEDLITRAADVSIKENRKLLLVTRETPLSSIHLENMLSLCRAGVIIFPPVPAFYTRPKSLHDLLEQSVGRILDCFGIHADTFPRWEGIKSK
B4: yeast FDC (ferulic acid decarboxylase, FDC1, Saccharomyces cerevisiae) in bait vector pGBKT7-Gateway (enzyme)
chain: T1 sequence (Q03034 1-503)
notes: Yeast two-hybrid bait fusion expressed in Clontech Y2HGold cells; also called FDC (Bait vector); not shown: fusion partner encoded by yeast two-hybrid bait vector pGBKT7-Gateway

One assay deals with T1, FDC1. The assay can be described thus: Effect of metal ions on activity of purified FDC1. In kind it is biochemical. Conditions: 10 mM metal ion, 1.4 mM tCA, pH 6.5, 5 minutes at 30° C., versus control without metal ions. The protocol: To study the effect of metal ions on FDC1 activity, we carried out reactions with various metal ions, including ZnSO4, FeCl3, MnCl2, MgSO4, CaCl2, MnSO4, and FeSO4. Reaction mixtures of 25 mM potassium phosphate buffer pH 6.5 containing 1.4 mM tCA, 5 mM DTT, 10 mM metal ion, and 0.5 mg purified FDC1 adjusted to a final volume of 1 mL were incubated for 5 minutes at 30° C. After the reaction, 1 mL of propanol was added to the reaction mixtures to solubilize styrene. The experimental control used the same conditions except the reaction mixture contained no metal ions. The experimental negative control used the same conditions except the reaction mixture contained no substrate. […] The effects of Zn^2+ and Fe^3+ on FDC1 activity were further investigated using EDTA to cancel out the effects of the metal ions. Reaction mixtures of 25 mM potassium phosphate buffer pH 6.5 containing 1.4 mM tCA, 5 mM DTT, 10 mM metal ion, 10 mM EDTA and 0.5 mg purified FDC1 were adjusted to a final volume of 1 mL, and were incubated for 5 minutes at 30° C. After the reaction, 1 mL of propanol was added to the reaction mixtures to solubilize styrene. The experimental control used the same conditions except the reaction mixture contained no metal ions or EDTA. The experimental negative control used the same conditions except the reaction mixture contained no substrate. […] Based on results presented in FIGS. 10A and 10B, enzyme activity of FDC1 can be increased by metal ions and it was not due to experimental artifact.

In assay [1] the target is T2, yeast FDC (ferulic acid decarboxylase, …). The assay can be described thus: yeast two-hybrid, growth on SD-Trp-Leu-His plate (bait PAD1, prey FDC). On the procedure:
(§1) We used yeast-two-hybrid system to test this hypothesis. […] Vectors pGBKT7-Gateway and pGADT7-Gateway are gifts from Dr. Brian P. Downes, Department of Biology, St Louis University (St Louis, Mo.). The resulting vectors were used to transform Clontech Y2HGold cells by one step transformation protocol as described in Example 4. 100 μl of the transformed cultures were spread on SD-Trp-Leu as well as SD-Trp-Leu-His plates and incubated at 30° C. for 3 days.

Assay [2] has as its target B4. Nature of the assay: yeast two-hybrid, growth on SD-Trp-Leu-His plate (bait FDC, prey PAD1). On the procedure: as §1
In assay [3] the test system is cinnamic acid. The assay can be described thus: Feeding cinnamic acid to Wat11 yeast expressing the enzyme, HPLC of products. In kind it is cell-based, S. cerevisiae. Conditions: 2 mM cinnamic acid, extracted after 8 hours. On the procedure: (§2) 0.8 ml of well-suspended cultures was taken out of the culture tube and 0.4 ml of ethyl acetate was added. The mixture was votexed at the maximum speed for half an hour and centrifuged at 15,000 rpm for 10 min at room temperature.
The extracted samples were analyzed by HPLC. HPLC was performed with an Agilent 1100 Series HPLC system using a SymmetryShield C18 column (Waters, 150×3.9 mm). The mobile phase consisted of solvent A (0.1% trifluoroacetic acid) and solvent B (acetonitrile). The gradient elution procedure was as follows: 0-5 min, 0% of B; 5-35 min, a linear gradient from 0% to 90% of B; 35-38 min, 90% of B; 38-40 min, 0% of B. The flow rate was 1.0 ml/min. The injection volume was 30 μl. Peaks for substrate and products areas were monitored at 260 nm. With this method, the retention times for cinnamic acid, p-coumaric acid, ferulic acid, styrene, 4-hydroxystyrene, and 4-vinylguaiacol (4-VG) were 21.5, 17.7, 17.7, 27.8, 22.3 and 22.1 min, respectively. […]
After transformation, 100 μl of the transgenic yeast culture was spread on SD-trp medium (Clontech, Mountain View, Calif.) and incubated at 30° C. for 3 days. […] 2 mM cinnamic acid was added to 2 d-old yeast culture and the products were extracted with ethyl acetate after 8 hours and analyzed by HPLC.

The test system of assay [4] is cinnamic acid. Nature of the assay: Feeding cinnamic acid to E. coli BL21AI expressing the enzyme, HPLC of products. The class given is cell-based. Conditions: 2 mM cinnamic acid, 37° C. On the procedure:
as §2
(§3) The extracted samples were analyzed by HPLC. HPLC was performed with an Agilent 1100 Series HPLC system using a SymmetryShield C18 column (Waters, 150×3.9 mm). The mobile phase consisted of solvent A (0.1% trifluoroacetic acid) and solvent B (acetonitrile). The gradient elution procedure was as follows: 0-5 min, 0% of B; 5-35 min, a linear gradient from 0% to 90% of B; 35-38 min, 90% of B; 38-40 min, 0% of B. The flow rate was 1.0 ml/min. The injection volume was 30 μl. Peaks for substrate and products areas were monitored at 260 nm. With this method, the retention times for cinnamic acid, p-coumaric acid, ferulic acid, styrene, 4-hydroxystyrene, and 4-vinylguaiacol (4-VG) were 21.5, 17.7, 17.7, 27.8, 22.3 and 22.1 min, respectively.
Plasmid pDEST17-PAD1 was transformed into E. coli strain BL21AI competent cells (Invitrogen). An overnight culture (2 ml) was inoculated into 40 ml of LB medium supplemented with 100 µg/ml ampicillin. Bacteria were grown at 37° C. in a shaker at 250 rpm for 3 h and then 0.2% (w/v) arabinose was added to the culture, followed by the addition of 2 mM of cinnamic acid. […]

In assay [5] the test system is cinnamic acid. Nature of the assay: Comparison of PAD1, FDC and OHBA1 activities in E. coli fed 1-40 mM cinnamic acid. The class given is cell-based. The protocol: Sample (0.5 ml) was taken various treatments, and extracted with 0.3 ml of ethyl acetate. The upper phase was used for the analysis of the product styrene, and the lower phase for the analysis of cinnamic acid left in the medium.

A further assay has as its system p-coumaric acid. The assay can be described thus: Feeding p-coumaric acid to Wat11 yeast expressing FDC, HPLC of products. In kind it is cell-based, S. cerevisiae. The protocol: as §2, §3
The test system of assay [6] is ferulic acid. The assay can be described thus: Feeding ferulic acid to Wat11 yeast expressing FDC, HPLC of products. The class given is cell-based, S. cerevisiae. The protocol:
as §2, §3

Assay [7] concerns ferulic acid. Nature of the assay: Feeding ferulic acid to E. coli BL21AI expressing FDC, HPLC of products. In kind it is cell-based. On the procedure: as §2, §3
In E. coli, pDEST17-FDC was transformed into E. coli strain BL21AI competent cells (Invitrogen). An overnight culture (2 ml) was inoculated into 40 ml of LB medium supplemented with 100 µg/ml ampicillin. […] The induced culture was further incubated at 37° C. and samples were taken at different time points for the analysis.

Assay [8] has as its target T2, yeast FDC (ferulic acid decarboxylase, …). Nature of the assay: yeast two-hybrid, growth on SD-Trp-Leu-His plate (bait FDC, prey FDC). The protocol: as §1

In the case of `O=S(=O)([O-])[O-].[Zn+2]` [Zn^+2, ZnSO4], on FDC1, the “effect on FDC1 activity (styrene produced)” value (“effect on FDC1 activity” for short) is reported as “increased the activity of FDC1”.

For the molecule `[Cl][Fe]([Cl])[Cl]` [Fe^+3, FeCl3], the “effect on FDC1 activity” value at FDC1 was “increased the activity of FDC1”.

Consider `O=S(=O)([O-])[O-].[Mg+2]` [Mg^+2, MgSO4], for which, on FDC1, the “effect on FDC1 activity” value was “increased the activity of FDC1”.

For the molecule `[Ca+2].[Cl-].[Cl-]` [Ca^+2, CaCl2], on FDC1, the “effect on FDC1 activity” value is “increased the activity of FDC1”.

For B1, the binding result in [1] is recorded as “no binding”.

Regarding B2, the binding result in assay [2] is on record as “no binding”.

In the case of B3, the “styrene production upon feeding of cinnamic acid” value in the assay with cinnamic acid [3] is recorded as “no styrene can be observed”; in the assay on cinnamic acid [4] it was “no styrene production was observed”; with cinnamic acid [5] (E. coli in LB+Amp medium, 1-10 mM cinnamic acid) it was “failed to produce any styrene”.

Take B4: the “styrene production upon feeding of cinnamic acid” value in the assay with cinnamic acid [3] is listed as “production of styrene”; in the assay on cinnamic acid [4], “Production of styrene was observed”. In the assay on p-coumaric acid, the “4-hydroxystyrene production upon feeding of p-coumaric acid” value is on record as “production of 4-hydroxystyrene”. In addition, the “4-VG production upon feeding of ferulic acid” value in the assay on ferulic acid [6] is given as “production of 4-VG”. For the same molecule, the “4-vinylguaiacol (4-VG) production upon feeding of ferulic acid” value in the assay with ferulic acid [7] is “Production of 4-vinylguaiacol (4-VG) was also observed”. This molecule registered a styrene biosynthesis in the assay on cinnamic acid [5] (E. coli, after feeding on cinnamic acid substrate for 2 h) of 94.6 mg/L. The binding result in assay [8] is given as “binds”.
